{"source": "paper PMC10372912", "about": "“Evidence for direct interaction between the oncogenic proteins E6 and E7 of high-risk human papillomavirus (HPV)” (The Journal of Biological Chemistry, 2023)", "molecules": {"B1": {"name": "unlabeled GGG-31E7 dimer (natural protein)", "chain": "GGGMRGETPTLQDYVLDLQPEATDLHCYEQLPDSSDEEDVIDSPAGQAEPDTSNYNIVTFCCQCKSTLRLCVQSTQVDIRILQELLMGSFGIVCPNCSTRL"}, "B2": {"name": "mTagBFP2-16E6 (natural protein, human papillomavirus type 16, UniProt P03126 1-158, looked up)", "chain": "MHQKRTAMFQDPQERPRKLPQLCTELQTTIHDIILECVYCKQQLLRREVYDFAFRDLCIVYRDGNPYAVCDKCLKFYSKISEYRHYCYSLYGTTLEQQYNKPLCDLLIRCINCQKPLCPEEKQRHLDKKQRFHNIRGRWTGRCMSCCRSSRTRRETQL", "notes": "Cloned in pmTagBFP-C1; SG linker between the fluorescent protein and the viral protein; also called mTagBFP2-E6 (HPV16); HPV 16E6; source: C33A, transfected, in cells; not shown: mTagBFP2, N-terminal, kept"}, "B3": {"name": "mTagBFP2-31E6 (natural protein)", "chain": "MFKNPAERPRKLHELSSALEIPYDELRLNCVYCKGQLTETEVLDFAFTDLTIVYRDDTPHGVCTKCLRFYSKVSEFRWYRYSVYGTTLEKLTNKGICDLLIRCITCQRPLCPEEKQRHLDKKKRFHNIGGRWTGRCIACWRRPRTETQV", "notes": "Cloned in pmTagBFP-C1; SG linker between the fluorescent protein and the viral protein; also called mTagBFP2-E6 (HPV31); HPV 31E6; source: C33A, transfected, in cells; not shown: mTagBFP2, N-terminal, kept"}, "B4": {"name": "mTagBFP2-38E6 (natural protein)", "chain": "MELPKPQTVQQLSDKLTVPVEDLLLPCRFCNSFLTYIELREFDYKNLQLIWTQEDFVFACCSSCAYASAQYECQQFYELTVFGREIEQVEQQTIGLIVIRCQYCLKCLDLIEKLDICCSHQAFHKVRGNWKGRCRHCKAIE", "notes": "Cloned in pmTagBFP-C1; SG linker between the fluorescent protein and the viral protein; also called mTagBFP2-E6 (HPV38); HPV 38E6; source: C33A, transfected, in cells; not shown: mTagBFP2, N-terminal, kept"}}, "key": {"[1]": {"biological_target": "fl-31E7 (human papillomavirus type 31) (UniProt P17387)", "test": "fluorescence polarisation; direct: 1.5-fold dilution series of MBP-E6 (or MBP) against fixed fl-E7 (350 nM HPV16, 200 nM HPV31) or 350 nM fl-16E7CR1/2; 20 mM Hepes pH 7.5, 200 mM NaCl, 1 mM TCEP, 0.005% Tween-20; one-site-specific binding fit"}, "[2]": {"biological_target": "fl-16E7 (human papillomavirus type 16) (UniProt P03129)", "test": "AUC; sedimentation equilibrium, 12,000 or 18,000 rpm, 20 °C, 20 mM Hepes pH 7.5, 200 mM NaCl, 1 mM TCEP; 100 μM MBP-16E6_4C4S-LxxLL, 100 μM fl-16E7, 100 μM complex (1:1 molar mixture)"}, "[3]": {"biological_target": "MBP-16E6_4C4S (human papillomavirus type 16)", "test": "fluorescence polarisation; competition: unlabeled GGG-E7 dimer (two-fold dilutions, from 200 μM HPV16, from 150 μM HPV31) against the preformed complex of fl-E7 with 50 μM MBP-16E6_4C4S or 70 μM MBP-31E6_2C2S-LxxLL (60-80% saturation); FP assay buffer; one-site-specific binding fit"}, "[4]": {"biological_target": "MBP-16E6_4C4S (human papillomavirus type 16)", "test": "fluorescence polarisation; competition: nonlabeled 16E7CR1/2 against the fl-16E7/MBP-16E6_4C4S complex (Fig. S5)"}, "[5]": {"biological_target": "MBP-16E6_4C4S (human papillomavirus type 16)", "test": "fluorescence polarisation; competition: nonlabeled 16E7CR1/2 (aa 1-44) against the complex of 200 μM MBP-16E6_4C4S and 350 nM fl-16E7CR1/2 (60% saturation)"}, "[6]": {"biological_target": "fl-16E7 (human papillomavirus type 16) (UniProt P03129)", "test": "fluorescence polarisation; direct: 1.5-fold dilution series of MBP-E6 (or MBP) against fixed fl-E7 (350 nM HPV16, 200 nM HPV31) or 350 nM fl-16E7CR1/2; 20 mM Hepes pH 7.5, 200 mM NaCl, 1 mM TCEP, 0.005% Tween-20; one-site-specific binding fit"}, "[7]": {"biological_target": "fl-16E7 (human papillomavirus type 16) (UniProt P03129)", "test": "AUC; sedimentation velocity, 40,000 rpm, 20 °C, 20 mM Hepes pH 7.5, 200 mM NaCl, 1 mM TCEP; fl-16E7 followed at 495 nm; 1:1 molar mixture and titration of MBP-16E6_4C4S-LxxLL (0-150 μM) against 100 μM fl-16E7"}, "[8]": {"biological_target": "fl-16E7CR1/2 (aa 1–44) (human papillomavirus type 16) (UniProt P03129)", "test": "fluorescence polarisation; direct: 1.5-fold dilution series of MBP-E6 (or MBP) against fixed fl-E7 (350 nM HPV16, 200 nM HPV31) or 350 nM fl-16E7CR1/2; 20 mM Hepes pH 7.5, 200 mM NaCl, 1 mM TCEP, 0.005% Tween-20; one-site-specific binding fit"}, "[9]": {"biological_target": "MBP-31E6_2C2S-LxxLL (human papillomavirus type 31 | not stated) (UniProt P17386)", "test": "fluorescence polarisation; competition: unlabeled GGG-E7 dimer (two-fold dilutions, from 200 μM HPV16, from 150 μM HPV31) against the preformed complex of fl-E7 with 50 μM MBP-16E6_4C4S or 70 μM MBP-31E6_2C2S-LxxLL (60-80% saturation); FP assay buffer; one-site-specific binding fit"}, "EYFP-16E7": {"biological_target": "T1, EYFP-16E7 (human papillomavirus type 16, UniProt P03129 1-98)", "T1 construct": "Cloned in pEYFP-C1; SG linker between EYFP and E7; also called EYFP-E7 (HPV16); HPV 16E7; source: C33A, transfected, in cells; not shown: EYFP, N-terminal, kept", "T1 sequence (looked up)": "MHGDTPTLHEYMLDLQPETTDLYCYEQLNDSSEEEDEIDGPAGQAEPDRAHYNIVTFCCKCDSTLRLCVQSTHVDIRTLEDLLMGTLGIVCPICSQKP", "test": "FRET or BRET; flow cytometry-based FRET (FACS-FRET) in C33A cells coexpressing mTagBFP2-E6 and EYFP-E7 of the same HPV type; at least 10% FRET and at least 500 FRET-positive cells count as an interaction; three biological replicates", "details": "partners not purified"}, "EYFP-31E7": {"biological_target": "T2, EYFP-31E7 (human papillomavirus type 31, UniProt P17387 1-98)", "T2 construct": "Cloned in pEYFP-C1; SG linker between EYFP and E7; also called EYFP-E7 (HPV31); HPV 31E7; source: C33A, transfected, in cells; not shown: EYFP, N-terminal, kept", "T2 sequence": "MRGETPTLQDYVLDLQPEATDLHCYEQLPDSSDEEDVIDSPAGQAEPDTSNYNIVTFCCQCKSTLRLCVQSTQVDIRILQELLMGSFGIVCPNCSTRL", "test": "FRET or BRET; flow cytometry-based FRET (FACS-FRET) in C33A cells coexpressing mTagBFP2-E6 and EYFP-E7 of the same HPV type; at least 10% FRET and at least 500 FRET-positive cells count as an interaction; three biological replicates", "details": "partners not purified"}, "EYFP-38E7": {"biological_target": "T3, EYFP-38E7 (human papillomavirus type 38, UniProt Q80908 1-100)", "T3 construct": "Cloned in pEYFP-C1; SG linker between EYFP and E7; also called EYFP-E7 (HPV38); HPV 38E7; source: C33A, transfected, in cells; not shown: EYFP, N-terminal, kept", "T3 sequence": "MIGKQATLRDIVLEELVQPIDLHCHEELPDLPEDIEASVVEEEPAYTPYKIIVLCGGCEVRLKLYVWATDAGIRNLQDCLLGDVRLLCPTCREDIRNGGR", "test": "FRET or BRET; flow cytometry-based FRET (FACS-FRET) in C33A cells coexpressing mTagBFP2-E6 and EYFP-E7 of the same HPV type; at least 10% FRET and at least 500 FRET-positive cells count as an interaction; three biological replicates", "details": "partners not purified"}}, "data": [{"molecule": "MBP-31E6_2C2S-LxxLL (from UniProt P17386 1-149)", "values": [{"measurement": "Kd", "setting": "[1]", "value": 59.4, "unit": "µM"}]}, {"molecule": "fl-16E7 (from UniProt P03129 1-98) (natural protein)", "values": [{"measurement": "stoichiometry N", "setting": "[2]", "value": 2}]}, {"molecule": "unlabeled GGG-16E7 dimer (from UniProt P03129 1-98) (natural protein)", "values": [{"measurement": "Kd", "setting": "[3]", "value": 61.9, "unit": "µM"}]}, {"molecule": "nonlabeled 16E7CR1/2 (aa 1–44) (from UniProt P03129 1-44) (peptide)", "values": [{"measurement": "Kd", "setting": "[4]", "value": 288, "unit": "µM"}, {"measurement": "Kd", "setting": "[5]", "value": 128, "unit": "µM"}]}, {"molecule": "MBP-16E6_4C4S-LxxLL", "values": [{"measurement": "Kd", "setting": "[6]", "value": 46.4, "unit": "µM"}, {"measurement": "stoichiometry N (E6 per E7 (2:2 complex))", "setting": "[2]", "value": 1}, {"measurement": "percent of fl-16E7 in complex", "setting": "[7]", "value": 89, "unit": "%"}]}, {"molecule": "MBP-16E6_4C4S (natural protein)", "values": [{"measurement": "Kd", "setting": "[8]", "value": 101, "unit": "µM"}, {"measurement": "Kd", "setting": "[6]", "value": 3, "unit": "µM"}]}, {"molecule": "B1", "values": [{"measurement": "Kd", "setting": "[9]", "value": 54.2, "unit": "µM"}]}, {"molecule": "B2", "values": [{"measurement": "percent FRET", "setting": "EYFP-16E7", "value": 13, "unit": "%"}]}, {"molecule": "B3", "values": [{"measurement": "percent FRET", "setting": "EYFP-31E7", "value": 16.3, "unit": "%"}]}, {"molecule": "B4", "values": [{"measurement": "percent FRET", "setting": "EYFP-38E7", "value": 17.9, "unit": "%"}]}]}
